Data on twelve molecules can be found in patent US20220306695A1, “COMPSTATIN ANALOGUES AND THEIR MEDICAL USES” (priority 2019, published 2022).

Broadly, the Kd is a measure of binding affinity in units of concentration. Low readings indicate higher affinity, high ones lower affinity.

Starred links: 1 amine or outer side, 2 acyl side, 3 side chain; linkers in the order of their positions; H or OH if unused. Positions of bridges follow the written chain, without caps; N, C: chain ends. Non-standard residues stand in square brackets, D forms with d. Groups on a side chain read outwards from the residue. *: point of attachment. Trp(1-Me) = Cn1cc(C[C@H](N)C(=O)O)c2ccccc21; C18 diacid = O=C(O)CCCCCCCCCCCCCCCCC(=O)*; γGlu = O=C(O)[C@H](CCC(=O)[*:2])N[*:1]; hCys = N[C@@H](CCS)C(=O)O; AEEA = NCCOCCOCC(=O)O; Sar = CNCC(=O)O

Test [1] addresses T1, Human C3 (human, UniProt P01024 23-1663).
T1 construct: In SPR the bought human C3 was immobilised on CM5 chips by amine coupling; In the haemolysis assay the C3 is that of diluted human serum; also called complement C3
The experiment in a line: SPR, C3 immobilised. As to the method:
Surface plasmon resonance (SPR) was used to characterize peptides with respect to their binding affinity (Kd) for C3. Human C3 (Complement tech cat #A1 13c) was immobilised on individual flow cells of CM5 sensor chips (GE Healthcare) using standard amine coupling to a density of approximately 3000 resonance units (RU) in a buffer consisting of 10 mM phosphate pH 7.4, 150 mM NaCl, 0.05% Tween20.
For interaction experiments a multi-cycle experiment approach was used and performed using either a Biacore™ T200 or Biacore™ X100 instrument (GE Healthcare) at 25° C. Peptides were injected in increasing concentration series (5-8 different concentrations) for 60-120 s at a flow rate of 30 μL/min in a buffer consisting of 10 mM Tris buffer at pH 7.4, with 150 mM NaCl and 0.05% Tween20. This was followed by a dissociation period for up to 10 min. The C3 surface was regenerated between runs by a 45 s injection of 3 M MgCl₂.
Sensorgrams were double-referenced (reference surface, blanks) prior to analysis of the kinetic profiles by globally fitting data to a 1:1 Langmuir binding model to obtain association and dissociation rates for calculation of the equilibrium dissociation constant Kd. Each peptide was tested at in at least 2 independent experiments.
In general terms: SPR reads the build-up and loss of mass on a sensor chip optically.

Test [2] deals with T1, Human C3. The experiment in a line: cell-based or functional assay.

T1 sequence (P01024 23-1663 limits assumed): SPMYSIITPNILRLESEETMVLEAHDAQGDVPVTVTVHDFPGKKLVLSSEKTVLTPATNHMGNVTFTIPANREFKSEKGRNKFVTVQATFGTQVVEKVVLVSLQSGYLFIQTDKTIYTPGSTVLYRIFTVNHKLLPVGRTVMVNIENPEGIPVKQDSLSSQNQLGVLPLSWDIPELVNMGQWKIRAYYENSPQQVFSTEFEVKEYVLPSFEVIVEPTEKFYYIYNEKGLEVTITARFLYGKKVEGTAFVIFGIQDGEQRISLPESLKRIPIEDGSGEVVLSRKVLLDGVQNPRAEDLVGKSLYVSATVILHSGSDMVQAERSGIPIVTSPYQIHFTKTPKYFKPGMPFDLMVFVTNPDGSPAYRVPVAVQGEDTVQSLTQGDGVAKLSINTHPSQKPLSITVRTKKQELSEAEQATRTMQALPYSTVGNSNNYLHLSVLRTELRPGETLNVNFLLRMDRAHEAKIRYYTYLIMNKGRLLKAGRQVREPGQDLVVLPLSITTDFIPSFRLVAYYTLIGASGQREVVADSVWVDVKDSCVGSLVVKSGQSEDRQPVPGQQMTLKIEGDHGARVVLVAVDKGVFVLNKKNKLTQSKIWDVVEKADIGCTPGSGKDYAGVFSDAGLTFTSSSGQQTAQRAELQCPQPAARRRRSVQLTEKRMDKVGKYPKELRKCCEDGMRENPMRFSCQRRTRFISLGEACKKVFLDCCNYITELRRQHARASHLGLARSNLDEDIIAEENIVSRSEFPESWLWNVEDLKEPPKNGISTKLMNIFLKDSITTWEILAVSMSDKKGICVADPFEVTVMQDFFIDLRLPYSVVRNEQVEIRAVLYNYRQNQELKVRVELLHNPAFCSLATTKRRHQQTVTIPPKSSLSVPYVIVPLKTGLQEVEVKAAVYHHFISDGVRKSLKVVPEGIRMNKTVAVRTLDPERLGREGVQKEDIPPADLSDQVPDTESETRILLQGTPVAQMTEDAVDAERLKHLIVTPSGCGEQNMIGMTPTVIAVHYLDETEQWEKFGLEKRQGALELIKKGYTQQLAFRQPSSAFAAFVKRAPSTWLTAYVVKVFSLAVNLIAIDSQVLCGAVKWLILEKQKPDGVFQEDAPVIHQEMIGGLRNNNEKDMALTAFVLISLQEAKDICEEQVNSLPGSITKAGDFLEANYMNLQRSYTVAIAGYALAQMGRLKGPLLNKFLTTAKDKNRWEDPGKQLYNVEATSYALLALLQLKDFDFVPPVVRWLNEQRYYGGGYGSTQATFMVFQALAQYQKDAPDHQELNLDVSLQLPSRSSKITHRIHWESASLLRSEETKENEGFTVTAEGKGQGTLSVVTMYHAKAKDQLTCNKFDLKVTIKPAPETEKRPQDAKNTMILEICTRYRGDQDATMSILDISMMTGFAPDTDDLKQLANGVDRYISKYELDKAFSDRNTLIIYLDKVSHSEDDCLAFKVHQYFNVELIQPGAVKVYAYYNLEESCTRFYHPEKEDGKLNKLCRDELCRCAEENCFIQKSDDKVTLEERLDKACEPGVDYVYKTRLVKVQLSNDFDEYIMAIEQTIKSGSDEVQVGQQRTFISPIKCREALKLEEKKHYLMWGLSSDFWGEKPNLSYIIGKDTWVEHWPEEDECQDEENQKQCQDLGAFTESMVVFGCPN

B1: Compound 23 (peptide)
peptide: Ac-FCIWQDWGEHRCT-NH2
modifications: disulfide 2-12
SMILES: CC[C@H](C)[C@@H]1NC(=O)[C@@H](NC(=O)[C@H](Cc2ccccc2)NC(C)=O)CSSC[C@@H](C(=O)N[C@H](C(N)=O)[C@@H](C)O)NC(=O)[C@H](CCCNC(=N)N)NC(=O)[C@H](Cc2c[nH]cn2)NC(=O)[C@H](CCC(=O)O)NC(=O)CNC(=O)[C@H](Cc2c[nH]c3ccccc23)NC(=O)[C@H](CC(=O)O)NC(=O)[C@H](CCC(N)=O)NC(=O)[C@H](Cc2c[nH]c3ccccc23)NC1=O
In the test with Human C3 [1], B1 yielded a Kd of 2.8 nM. Moreover, the “IC50[nM], inhibition of hemolysis” value with Human C3 [2] was < 100 nM.

B2: Compound 140 (peptide)
peptide: Ac-SEFCI[Trp(1-Me)]QDWGEHRC[Sar]EGE[AEEA]ESK([γGlu-γGlu-C18 diacid])-NH2
modifications: disulfide 4-14
Take B2: binding in the test with Human C3 [1] was characterised by a dissociation constant (Kd) of 7.6 nM. Moreover, in the test with Human C3 [2], the “IC50[nM], inhibition of hemolysis” value was < 100 nM.

B3: Compound 150 (peptide)
peptide: SEFAIWQDWGEHRCGEGEXESK
modifications: not fully specified; N-acetyl; C-terminal amide; delta-cystathionine (Ctt2) thioether bridge A4-hCys14 (hCys written C); W6 is 1-Me-Trp; G10 is Sar; G15 is Sar; X19 is Peg3; K22 side chain bears [17-carboxy-heptadecanoyl][γGlu]G[γGlu]
B3 showed a Kd with Human C3 [1] of 0.56 nM. The “IC50[nM], inhibition of hemolysis” value with Human C3 [2] is < 100 nM.

B4: Compound 165 (peptide)
peptide: Ac-SEF[hCys]I[Trp(1-Me)]QDWGEHRATEGE[AEEA]ESK([γGlu-C18 diacid])-NH2
modifications: thioether 4-14
SMILES: CC[C@H](C)[C@@H]1NC(=O)[C@@H](NC(=O)[C@H](Cc2ccccc2)NC(=O)[C@H](CCC(=O)O)NC(=O)[C@H](CO)NC(C)=O)CCSC[C@@H](C(=O)N[C@H](C(=O)N[C@@H](CCC(=O)O)C(=O)NCC(=O)N[C@@H](CCC(=O)O)C(=O)NCCOCCOCC(=O)N[C@@H](CCC(=O)O)C(=O)N[C@@H](CO)C(=O)N[C@@H](CCCCNC(=O)CC[C@H](NC(=O)CCCCCCCCCCCCCCCCC(=O)O)C(=O)O)C(N)=O)[C@@H](C)O)NC(=O)[C@H](CCCNC(=N)N)NC(=O)[C@H](Cc2c[nH]cn2)NC(=O)[C@H](CCC(=O)O)NC(=O)CNC(=O)[C@H](Cc2c[nH]c3ccccc23)NC(=O)[C@H](CC(=O)O)NC(=O)[C@H](CCC(N)=O)NC(=O)[C@H](Cc2cn(C)c3ccccc23)NC1=O
Take B4: binding with Human C3 [1] was characterised by a dissociation constant (Kd) of 20.7 nM. In the test with Human C3 [2], the “IC50[nM], inhibition of hemolysis” value was < 250 nM.

B5: Compound 142 (peptide)
peptide: Ac-SEFCI[Trp(1-Me)]QDWGEHRCTEGE[AEEA]ESK([γGlu-C18 diacid])-NH2
modifications: disulfide 4-14
B5 had a dissociation constant (Kd) with Human C3 [1] of 4.8 nM. The “IC50[nM], inhibition of hemolysis” value in the test with Human C3 [2] was < 100 nM.

B6: Compound 67 (peptide)
peptide: Ac-SEFCI[Trp(1-Me)]QDWGEHRCTGAES-NH2
modifications: disulfide 4-14
SMILES: CC[C@H](C)[C@@H]1NC(=O)[C@@H](NC(=O)[C@H](Cc2ccccc2)NC(=O)[C@H](CCC(=O)O)NC(=O)[C@H](CO)NC(C)=O)CSSC[C@@H](C(=O)N[C@H](C(=O)NCC(=O)N[C@@H](C)C(=O)N[C@@H](CCC(=O)O)C(=O)N[C@@H](CO)C(N)=O)[C@@H](C)O)NC(=O)[C@H](CCCNC(=N)N)NC(=O)[C@H](Cc2c[nH]cn2)NC(=O)[C@H](CCC(=O)O)NC(=O)CNC(=O)[C@H](Cc2c[nH]c3ccccc23)NC(=O)[C@H](CC(=O)O)NC(=O)[C@H](CCC(N)=O)NC(=O)[C@H](Cc2cn(C)c3ccccc23)NC1=O
Take B6: in the test with Human C3 [1], the Kd came to 0.68 nM. Further, in the test with Human C3 [2], the “IC50[nM], inhibition of hemolysis” value was < 100 nM.

B7: Compound 43 (peptide)
peptide: Ac-FCIWQDWGEHRCTGAE-NH2
modifications: disulfide 2-12
SMILES: CC[C@H](C)[C@@H]1NC(=O)[C@@H](NC(=O)[C@H](Cc2ccccc2)NC(C)=O)CSSC[C@@H](C(=O)N[C@H](C(=O)NCC(=O)N[C@@H](C)C(=O)N[C@@H](CCC(=O)O)C(N)=O)[C@@H](C)O)NC(=O)[C@H](CCCNC(=N)N)NC(=O)[C@H](Cc2c[nH]cn2)NC(=O)[C@H](CCC(=O)O)NC(=O)CNC(=O)[C@H](Cc2c[nH]c3ccccc23)NC(=O)[C@H](CC(=O)O)NC(=O)[C@H](CCC(N)=O)NC(=O)[C@H](Cc2c[nH]c3ccccc23)NC1=O
In turn, B7 yielded a Kd with Human C3 [1] of 3.3 nM. In the test with Human C3 [2], the “IC50[nM], inhibition of hemolysis” value is < 100 nM.

B8: Compound 61 (peptide)
peptide: Ac-FCI[Trp(1-Me)]QDWGEHRCTGAES-NH2
modifications: disulfide 2-12
SMILES: CC[C@H](C)[C@@H]1NC(=O)[C@@H](NC(=O)[C@H](Cc2ccccc2)NC(C)=O)CSSC[C@@H](C(=O)N[C@H](C(=O)NCC(=O)N[C@@H](C)C(=O)N[C@@H](CCC(=O)O)C(=O)N[C@@H](CO)C(N)=O)[C@@H](C)O)NC(=O)[C@H](CCCNC(=N)N)NC(=O)[C@H](Cc2c[nH]cn2)NC(=O)[C@H](CCC(=O)O)NC(=O)CNC(=O)[C@H](Cc2c[nH]c3ccccc23)NC(=O)[C@H](CC(=O)O)NC(=O)[C@H](CCC(N)=O)NC(=O)[C@H](Cc2cn(C)c3ccccc23)NC1=O
The molecule B8 displayed a Kd with Human C3 [1] of 0.33 nM. Moreover, the “IC50[nM], inhibition of hemolysis” value in the test with Human C3 [2] was < 100 nM.

B9: Compound 29 (peptide)
peptide: Ac-EGSAICIWQDWGEHRCT-NH2
modifications: disulfide 6-16
SMILES: CC[C@H](C)[C@H](NC(=O)[C@H](C)NC(=O)[C@H](CO)NC(=O)CNC(=O)[C@H](CCC(=O)O)NC(C)=O)C(=O)N[C@H]1CSSC[C@@H](C(=O)N[C@H](C(N)=O)[C@@H](C)O)NC(=O)[C@H](CCCNC(=N)N)NC(=O)[C@H](Cc2c[nH]cn2)NC(=O)[C@H](CCC(=O)O)NC(=O)CNC(=O)[C@H](Cc2c[nH]c3ccccc23)NC(=O)[C@H](CC(=O)O)NC(=O)[C@H](CCC(N)=O)NC(=O)[C@H](Cc2c[nH]c3ccccc23)NC(=O)[C@H]([C@@H](C)CC)NC1=O
Molecule B9 showed a Kd in the test with Human C3 [1] of 21 nM. The “IC50[nM], inhibition of hemolysis” value with Human C3 [2] was < 100 nM.

B10: Compound 141 (peptide)
peptide: Ac-SEFCI[Trp(1-Me)]QDWGEHRC[Sar]EGESESK([γGlu-C18 diacid])-NH2
modifications: disulfide 4-14
SMILES: CC[C@H](C)[C@@H]1NC(=O)[C@@H](NC(=O)[C@H](Cc2ccccc2)NC(=O)[C@H](CCC(=O)O)NC(=O)[C@H](CO)NC(C)=O)CSSC[C@@H](C(=O)N(C)CC(=O)N[C@@H](CCC(=O)O)C(=O)NCC(=O)N[C@@H](CCC(=O)O)C(=O)N[C@@H](CO)C(=O)N[C@@H](CCC(=O)O)C(=O)N[C@@H](CO)C(=O)N[C@@H](CCCCNC(=O)CC[C@H](NC(=O)CCCCCCCCCCCCCCCCC(=O)O)C(=O)O)C(N)=O)NC(=O)[C@H](CCCNC(=N)N)NC(=O)[C@H](Cc2c[nH]cn2)NC(=O)[C@H](CCC(=O)O)NC(=O)CNC(=O)[C@H](Cc2c[nH]c3ccccc23)NC(=O)[C@H](CC(=O)O)NC(=O)[C@H](CCC(N)=O)NC(=O)[C@H](Cc2cn(C)c3ccccc23)NC1=O
Take B10: in the test with Human C3 [1], binding was characterised by a dissociation constant (Kd) of 6.6 nM. The “IC50[nM], inhibition of hemolysis” value with Human C3 [2] was < 100 nM.

B11: Compound 147 (peptide)
peptide: SEFAIWQDWGEHRCGEXXK
modifications: not fully specified; N-acetyl; C-terminal amide; delta-cystathionine (Ctt2) thioether bridge A4-hCys14 (hCys written C); W6 is 1-Me-Trp; G10 is Sar; G15 is Sar; X17 and X18 are Peg3; K19 side chain bears [17-carboxy-heptadecanoyl][γGlu]G[γGlu]
Molecule B11 showed a Kd in the test with Human C3 [1] of 0.71 nM. Moreover, in the test with Human C3 [2], the “IC50[nM], inhibition of hemolysis” value was < 100 nM.

B12: Compound 164 (peptide)
peptide: Ac-SEF[hCys]I[Trp(1-Me)]QDW[Sar]EHRA[Sar]E[AEEA][AEEA]K([γGlu-Gly-γGlu-C18 diacid])-NH2
modifications: thioether 4-14
For B12, binding with Human C3 [1] was put at a Kd of 6.4 nM. Besides, the “IC50[nM], inhibition of hemolysis” value with Human C3 [2] was < 100 nM.
